The RNAGym collection of RNA variant scans (doi:10.7554/elife.90254)

B1: LINE1-full (parent)
chain: UACGUAGGUGGUUUUCCCCUGAUAGUGCUAAGGGGGCCUGGAAGUUUGGACUGGGCAGAGCUCAACACAGCGUGGCAAAGUGGCUGUGGCUAGACUGCCUCUCUGGAUUCCUCGUCACUCAGCAGGGCAUCUCUGAGAGAAAUGCC

Variants of: B1
Test: self-cleavage, relative activity (ratio to wild type); higher = more cleavage; in vitro, sequencing; the parent is a self-cleaving ribozyme

Compared with U46A G89C, U46A G114C is higher in self-cleavage: 0.03 for the first, 1.56 for the second.

Compared with U47A C76U, U47A A138G is lower in self-cleavage: 1.83 for the first, 1.39 for the second.

Going from U46C A129U to U46C A129G, the self-cleavage rises from 1.27 to 2.35.

First: U47A C110U
Second: U46C G49A
The self-cleavage of the first is lower: 0.95 for the first, 1.4 for the second.

Compared with U47C A67U, U47C A67G is higher in self-cleavage: 0.2 for the first, 0.88 for the second.

First: U45G A107U
Second: U45C U52A
The self-cleavage of the first is lower: 1.05 for the first, 1.33 for the second.

Going from U46A U134G to U46A U134A, the self-cleavage falls from 0.84 to 0.77.

First: U47A A69U
Second: U45C G144U
The self-cleavage of the first is lower: 0.04 for the first, 1.42 for the second.

First: U47A G86A
Second: U46A U104C
The self-cleavage of the first is lower: 0.07 for the first, 1.96 for the second.

U46C U115C and U46A A138G are the same in self-cleavage: 1.66 for the first, 1.66 for the second.

First: U46C U96C
Second: U46C U96A
The self-cleavage of the first is higher: 0.3 for the first, 0.08 for the second.

Going from U47A A124G to U45C U134G, the self-cleavage rises from 0.79 to 1.22.

Going from U45C U134C to U45C U134A, the self-cleavage rises from 1.47 to 1.6.

Going from U46A A121G to U47A A107U, the self-cleavage rises from 1.15 to 1.79.

Compared with U47C C51U, U45C G80C is higher in self-cleavage: 1.14 for the first, 1.8 for the second.

First: U45C G75A
Second: U45C G114A
The self-cleavage of the first is lower: 1.13 for the first, 1.48 for the second.

First: U47A A94U
Second: U46A A107C
The self-cleavage of the first is lower: 0.18 for the first, 1.99 for the second.

Going from U46A U112A to U46A U112C, the self-cleavage falls from 1.37 to 1.28.

Going from U47A U96C to U45G G55C, the self-cleavage falls from 0.13 to 0.08.

Compared with U47A C68U, U46G G89A is lower in self-cleavage: 0.13 for the first, 0.04 for the second.

Going from U46A U91A to U46C G53A, the self-cleavage rises from 0.62 to 1.54.

Compared with U47A C113U, U47A C90U is lower in self-cleavage: 1.17 for the first, 0.03 for the second.

First: U46A G125A
Second: U46C C71G
The self-cleavage of the first is higher: 2 for the first, 0.96 for the second.

First: U46C C71U
Second: U47C C61U
The self-cleavage of the first is higher: 1.11 for the first, 0.05 for the second.

First: U47A C123U
Second: U45G G83A
The self-cleavage of the first is higher: 0.7 for the first, 0.54 for the second.

Going from U46A A78G to U46A A78U, the self-cleavage rises from 0.69 to 2.19.

Compared with U46A U132A, U45C U81A is higher in self-cleavage: 1.09 for the first, 2.03 for the second.

First: U47A C63U
Second: U47A A92U
The self-cleavage of the first is lower: 0.33 for the first, 0.5 for the second.

Going from U47A A92G to U47C G89U, the self-cleavage falls from 0.17 to 0.04.

Going from U46A U115C to U46A U115A, the self-cleavage falls from 1.72 to 1.26.

First: U45C U132G
Second: U47C G72U
The self-cleavage of the first is lower: 1.33 for the first, 2.51 for the second.

Compared with U47C U87C, U47A U100G is higher in self-cleavage: 0.48 for the first, 1.93 for the second.

First: U47A G137U
Second: U46C G58U
The self-cleavage of the first is higher: 1.36 for the first, 0.05 for the second.

Compared with U46A U143A, U46A U130C is higher in self-cleavage: 1.38 for the first, 1.88 for the second.

Compared with U47C A129U, U47C A57G is lower in self-cleavage: 1.74 for the first, 1.54 for the second.

Compared with U46C U81G, U46C U81A is higher in self-cleavage: 0.54 for the first, 2.18 for the second.

Going from U47A U132A to U45C G88A, the self-cleavage falls from 1.34 to 0.08.

Going from U45C U47C to U45C U47G, the self-cleavage falls from 1.23 to 1.09.

Compared with U47C G86A, U47C G86U is higher in self-cleavage: 0.06 for the first, 0.13 for the second.

First: U47A A136U
Second: U47C U85A
The self-cleavage of the first is higher: 1.48 for the first, 0.13 for the second.

First: U47C U85C
Second: U47C G75A
The self-cleavage of the first is lower: 0.24 for the first, 1.95 for the second.

Going from U47C C120U to U47A A121U, the self-cleavage falls from 1.72 to 1.04.

Going from U47A A121G to U46C A65U, the self-cleavage falls from 1.39 to 0.24.

First: U46C A65G
Second: U46C A67C
The self-cleavage of the first is higher: 0.06 for the first, 0.05 for the second.

Going from U45C U62G to U45C U62A, the self-cleavage rises from 0 to 0.04.

Going from U45C G93A to U47C G82A, the self-cleavage rises from 0.07 to 2.09.

First: U47A U134C
Second: U45G A140G
The self-cleavage of the first is higher: 1.39 for the first, 1.33 for the second.

First: U45G A64G
Second: U45G U130C
The self-cleavage of the first is lower: 0.24 for the first, 2.36 for the second.

Compared with U46G A65G, U47A U115C is higher in self-cleavage: 0.05 for the first, 1.39 for the second.

Going from U47A U115A to U47C G53U, the self-cleavage rises from 1.05 to 1.3.

Compared with U45C U91C, U45C U91G is lower in self-cleavage: 0.69 for the first, 0 for the second.

First: U45C U91A
Second: U45C U112C
The self-cleavage of the first is lower: 0.55 for the first, 1.27 for the second.

Going from U46A U100C to U47C A77C, the self-cleavage falls from 1.75 to 0.34.

First: U46C C56U
Second: U47C C128A
The self-cleavage of the first is lower: 0.5 for the first, 0.73 for the second.

First: U46A U62A
Second: U45G U96A
The self-cleavage of the first is higher: 0.04 for the first, 0.03 for the second.

First: U46A A129G
Second: U46G G53U
The self-cleavage of the first is lower: 1.16 for the first, 1.73 for the second.

First: U47A G127U
Second: U46C G144A
The self-cleavage of the first is lower: 1.67 for the first, 2.24 for the second.

First: U47C U100C
Second: U47A C111A
The self-cleavage of the first is higher: 2.49 for the first, 1.18 for the second.

Compared with U46C U73A, U46C U73C is higher in self-cleavage: 1.68 for the first, 2.17 for the second.

Compared with U46C G114A, U46C G114U is lower in self-cleavage: 1.22 for the first, 1.12 for the second.

Going from U47C G125U to U46C C120A, the self-cleavage falls from 1.39 to 0.85.

First: U46C C120U
Second: U47A U102C
The self-cleavage of the first is higher: 1.57 for the first, 1.19 for the second.

Going from U47A U102A to U45C U115G, the self-cleavage rises from 1.35 to 2.1.

First: U45C U115C
Second: U45C U119C
The self-cleavage of the first is higher: 2.14 for the first, 2.12 for the second.

First: U45C U119A
Second: U47C A141G
The self-cleavage of the first is lower: 1.3 for the first, 1.51 for the second.

First: U45G U112C
Second: U46C C103A
The self-cleavage of the first is lower: 1.38 for the first, 1.58 for the second.

Compared with U47A U85C, U45G A59G is lower in self-cleavage: 0.12 for the first, 0 for the second.

First: U45C U73G
Second: U47C G54U
The self-cleavage of the first is lower: 1.22 for the first, 1.48 for the second.

Going from U47C G54A to U46A A136U, the self-cleavage rises from 0.59 to 1.18.

Compared with U45G U108C, U47A A59G is lower in self-cleavage: 1.91 for the first, 0.05 for the second.

First: U47C C84A
Second: U47A A64U
The self-cleavage of the first is lower: 0.15 for the first, 0.44 for the second.

Compared with U47A A64C, U47C A79U is higher in self-cleavage: 0.25 for the first, 1.76 for the second.

Compared with U46C U85A, U46A U96A is lower in self-cleavage: 0.14 for the first, 0.05 for the second.

Compared with U46C A77G, U46C A77U is lower in self-cleavage: 2.46 for the first, 1.51 for the second.

U46C A117G and U46C A117U are the same in self-cleavage: 1.78 for the first, 1.78 for the second.

Going from U45G A92U to U47C C95A, the self-cleavage falls from 0.61 to 0.09.

Going from U45C U130G to U45C U130A, the self-cleavage falls from 1.9 to 1.66.

Going from U45C U130C to U47A U81C, the self-cleavage rises from 1.39 to 1.57.

Going from U45C U109C to U47C G55A, the self-cleavage rises from 0.61 to 0.65.

Going from U46A A64U to U46A A64G, the self-cleavage falls from 0.46 to 0.18.

Compared with U47C U91A, U46C U52C is higher in self-cleavage: 0.97 for the first, 1.26 for the second.

Going from U46A C145U to U46G A136G, the self-cleavage rises from 1.52 to 1.96.

First: U46G A136U
Second: U47A U91C
The self-cleavage of the first is higher: 1.34 for the first, 0.63 for the second.

Work on U46C G80A yielded a self-cleavage of 2.95.
